From paper PMC5684140

Target: JMJD8-FLAG-HA (HeLa-JMJD8-FLAG-HA) (human) (UniProt Q96S16)
Assay: SEC; gel filtration (Superdex 200) of total cell lysate of HeLa S3 cells stably expressing JMJD8-FLAG-HA; fractions immunoblotted with anti-FLAG

JMJD8-FLAG-HA (HeLa-JMJD8-FLAG-HA) (from UniProt Q96S16-1 24-264) (natural protein)
stoichiometry N: 2
